What all share (experiment): cell-based or functional assay
Test [1] deals with HIV-1 Env of isolate 6535.3 (subtype B) (HIV-1).
In test [2] the target is HIV-1 Env of isolate 92BR020 (subtype B) (HIV-1).
For test [3], the target named is HIV-1 Env of isolate 93TH305 (subtype B) (HIV-1).
The target in test [4] is HIV-1 Env of isolate APV 13 (subtype B) (HIV-1).
The target of test [5] is HIV-1 Env of isolate APV 6 (subtype B) (HIV-1).
Test [6] concerns the target HIV-1 Env of isolate APV_17 (subtype B) (HIV-1).
The target of test [7] is HIV-1 Env of isolate MGRM-G-001 (subtype G), on pseudovirus (HIV-1).
Test [8] deals with HIV-1 Env of isolate MGRM-G-004 (subtype G), on pseudovirus (HIV-1).
Test [9] has as its target HIV-1 Env of isolate MGRM-G-006 (subtype G), on pseudovirus (HIV-1).
For test [10], the target named is HIV-1 Env of isolate MGRM-G-009 (subtype G), on pseudovirus (HIV-1).
The target in test [11] is HIV-1 Env of isolate MGRM-G-011 (subtype G), on pseudovirus (HIV-1).
For test [12], the target named is HIV-1 Env of isolate MGRM-G-013 (subtype G), on pseudovirus (HIV-1).
Test [13] addresses HIV-1 Env of isolate MGRM-G-014 (subtype G), on pseudovirus (HIV-1).
In test [14] the target is HIV-1 Env of isolate MGRM-G-015 (subtype G), on pseudovirus (HIV-1).
Test [15] deals with HIV-1 Env of isolate MGRM-G-016 (subtype G), on pseudovirus (HIV-1).
The target of test [16] is HIV-1 Env of isolate MGRM-G-017 (subtype G), on pseudovirus (HIV-1).
Test [17] concerns the target HIV-1 Env of isolate MGRM-G-019 (subtype G), on pseudovirus (HIV-1).
Test [18] has as its target HIV-1 Env of isolate MGRM-G-024 (subtype G), on pseudovirus (HIV-1).
Test [19] addresses HIV-1 Env of isolate MGRM-G-025 (subtype G), on pseudovirus (HIV-1).
In test [20] the target is HIV-1 Env of isolate MGRM-G-027 (subtype G), on pseudovirus (HIV-1).
In test [21] the target is HIV-1 Env of isolate MGRM-G-028 (subtype G), on pseudovirus (HIV-1).
Test [22] has as its target aMLV envelope, on pseudovirus (negative control).
The target of test [23] is Envelope protein of control pseudovirus MuLV (MuLV).
Test [24] has as its target HIV-1 92RW020 envelope glycoprotein (Env), on pseudovirus (HIV-1 isolate 92RW020 (clade A)).
The target in test [25] is HIV-1 ADA envelope glycoprotein (Env), on pseudovirus (HIV-1 isolate ADA).
Test [26] has as its target HIV-1 Env of pseudovirus AC10 (HIV-1).
Test [27] concerns the target HIV-1 Env of pseudovirus CAAN (HIV-1).
The target in test [28] is HIV-1 Env of pseudovirus CAP45 (HIV-1).
Test [29] deals with HIV-1 Env of pseudovirus DU156 (HIV-1).
Test [30] concerns the target HIV-1 Env of pseudovirus DU422 (HIV-1).
Test [31] deals with HIV-1 Env of pseudovirus Du172 (HIV-1).
The target in test [32] is HIV-1 Env of pseudovirus PVO.4 (HIV-1).
Test [33] has as its target HIV-1 Env of pseudovirus REJ04541 (HIV-1).
Test [34] deals with HIV-1 Env of pseudovirus THRO.18 (HIV-1).
Test [35] deals with HIV-1 Env of pseudovirus TR0.11 (HIV-1).
For test [36], the target named is HIV-1 Env of pseudovirus ZM214 (HIV-1).
The target of test [37] is HIV-1 Env of pseudovirus ZM233 (HIV-1).
Test [38] concerns the target HIV-1 Env of pseudovirus ZM249 (HIV-1).
The target of test [39] is HIV-1 JR-FL Env E168K, on pseudovirus (HIV-1 isolate JR-FL (clade B)).

B1: PGT-131 (antibody, V domains shown)
VH: QVQLQESGPGLVKPSETLSLTCTVSGDSINTGHHYWGWVRQVPGKGPEWIAHIHYNTAVLHNPALKSRVTISIFTLKNLITLSLSNVTAADTAVYFCVRSGGDILYYIEWQKPHWFYPWGPGILVTVSS
VL: QSALTQPPSASGSLGQSLTISCSGTGSDIGSWNFVSWYQQFPGRAPNLIIFEVNRRRSGVPDRFSGSKSGNTASLTVSGLRSEDEAEYFCSSLSGRWDIVFGGGTKVTVL
For the molecule B1, the IC50 (µg/mL), pseudovirus neutralization in test [1] is 0.056 µg/mL; in test [2], 6.16 µg/mL; in test [3], 0.016 µg/mL; in test [4], 0.189 µg/mL; in [5] it was over 50 µg/mL; in [6], over 50 µg/mL. For the same molecule, the IC50 (µg/mL), neutralization of pseudovirus was 0.404 µg/mL in [7]; over 50 µg/mL in test [8]; over 50 µg/mL in test [9]; over 50 µg/mL in test [10]; over 50 µg/mL in test [11]; over 50 µg/mL in [12]. The IC50 (µg/mL), neutralization of pseudovirus in [13] is 4.31 µg/mL; in test [14], over 50 µg/mL; in test [15], over 50 µg/mL; in test [16], over 50 µg/mL; in test [17], over 50 µg/mL; in test [18] it was 10.7 µg/mL. For the same molecule, the IC50 (µg/mL), neutralization of pseudovirus was 7.75 µg/mL in [19], 2.9 µg/mL in test [20], 0.466 µg/mL in test [21] and over 50 µg/mL in test [22].

B2: PGT-137 (antibody, V domains shown)
VH: EVHLEESGPGLVRPSETLSLTCTASGGSIRGGEWGDSDYHWGWVRHSPEKGLEWIGSIHWRGTTHYNAPFRGRGRLSIDLSRNQFSLRLTSVTAEDTAVYYCVKHKYHDIVMVVPIAGWFDPWGQGLQVTVSS
VL: EIMMTQSPAILSVSPGDRATLSCRASQSVKNNLAWYQKRPGQAPRLLIFDTSSRASGIPARFSGGGSGTEFTLTVNSMQSEDFATYYCQQYEEWPRTFGQGTKVEIK
In the case of B2, the IC50 (µg/mL), pseudovirus neutralization was over 50 µg/mL in test [1]; 7.81 µg/mL in test [2]; over 50 µg/mL in test [3]; over 50 µg/mL in [4]; over 50 µg/mL in [5]; over 50 µg/mL in test [6]. In addition, the IC50 (µg/mL), neutralization of pseudovirus is 41.7 µg/mL in [7]; over 50 µg/mL in [8]; over 50 µg/mL in [9]; over 50 µg/mL in test [10]; over 50 µg/mL in test [11]; over 50 µg/mL in test [12]. The IC50 (µg/mL), neutralization of pseudovirus is over 50 µg/mL in test [13]; over 50 µg/mL in test [14]; over 50 µg/mL in test [15]; 34.9 µg/mL in test [16]; 0.126 µg/mL in test [17]; 0.051 µg/mL in test [18]. The IC50 (µg/mL), neutralization of pseudovirus was over 50 µg/mL in test [19], 0.228 µg/mL in test [20], over 50 µg/mL in test [21] and over 50 µg/mL in test [22].

B3: PGT-136 (antibody, V domains shown)
VH: QLQLQESGPGLVKPSETLSLTCTVSGGSMRGTDWGENDFHYGWIRQSSAKGLEWIGSIHWRGRTTHYKTSFRSRATLSIDTSNNRFSLTFSFVTAADTAVYYCARHKYHDIFRVVPVAGWFDPWGQGLLVTVSS
VL: EIVMTQSPPTLSVSPGETATLSCRASQNVKNNLAWYQLKPGQAPRLLIFDASSRAGGIPDRFSGSGYGTDFTLTVNSVQSEDFGDYFCQQYEEWPRTFGQGTKVDIK
Take B3: the IC50 (µg/mL), pseudovirus neutralization in test [1] was over 50 µg/mL; in [2], 8.61 µg/mL; in [3], 20.2 µg/mL; in [4], over 50 µg/mL; in test [5], over 50 µg/mL; in [6], over 50 µg/mL. For the same molecule, the IC50 (µg/mL), neutralization of pseudovirus in test [7] is 8.11 µg/mL; in [8], over 50 µg/mL; in test [9], over 50 µg/mL; in test [10], over 50 µg/mL; in test [11] it was over 50 µg/mL; in [12], over 50 µg/mL. In addition, the IC50 (µg/mL), neutralization of pseudovirus in [13] was over 50 µg/mL; in test [14], over 50 µg/mL; in test [15], over 50 µg/mL; in test [16] it was over 50 µg/mL; in test [17] it was 44.3 µg/mL; in test [18], 0.152 µg/mL. For the same molecule, the IC50 (µg/mL), neutralization of pseudovirus is over 50 µg/mL in test [19], 45.2 µg/mL in test [20], over 50 µg/mL in test [21] and over 50 µg/mL in test [22].

B4: 1503_H05 (PG16) (TCN-119) (antibody, V domains shown)
VH: QEKLVESGGGVVQPGGSLRLSCLASGFTFHKYGMHWVRQAPGKGLEWVALISDDGMRKYHSDSMWGRVTISRDNSKNTLYLQFSSLKVEDTAMFFCAREAGGPIWHDDVKYYDFNDGYYNYHYMDVWGKGTIVTVSS
VL: QSALTQPASVSGSPGQTITISCNGTRSDVGGFDSVSWYQQSPGKAPKVMVFDVSHRPSGISNRFSGSKSGNTASLTISGLHIEDEGDYFCSSLTDRSHRIFGGGTKVTVLG
Molecule B4 displayed an IC50, pseudovirus neutralization (TZM-bl assay), control virus in [23] of over 25 µg/mL. Also, the values for the IC50 (ug/ml), pseudovirus neutralization, TZM-bl assay in test [24], in test [25] and in [39] were 0.02 µg/mL, 0.003 µg/mL and 0.002 µg/mL, respectively. Besides, the IC50, pseudovirus neutralization (TZM-bl assay) in test [26] was under 0.01 µg/mL; in [27], 13.5 µg/mL; in test [28] it was under 0.01 µg/mL; in [29], under 0.01 µg/mL; in test [30] it was 0.71 µg/mL; in test [31], under 0.01 µg/mL. The IC50, pseudovirus neutralization (TZM-bl assay) in test [32] is 11 µg/mL; in test [33], 0.22 µg/mL; in [34] it was 4.12 µg/mL; in test [35], 4.3 µg/mL; in test [36], over 25 µg/mL; in test [37] it was under 0.01 µg/mL. This molecule also came in with an IC50, pseudovirus neutralization (TZM-bl assay) in test [38] of under 0.01 µg/mL.

These data come from patent US20240132578A1.
